In publication PMC4380364:

Legend:
[1] = target: T1, L-selectin (cell surface, Jurkat T lymphocytes) (Homo sapiens?) (UniProt P14151); test: competition (flow cytometry); details: vs 100 nM FITC-DREG56 antibody, 4°C, Jurkat cells, competition with 100 nM FITC-DREG56 for 35 min at 4°C, washed in PBS, 2% PFA fix, SLeX assay in PBS with 1% human serum albumin …
T1 sequence: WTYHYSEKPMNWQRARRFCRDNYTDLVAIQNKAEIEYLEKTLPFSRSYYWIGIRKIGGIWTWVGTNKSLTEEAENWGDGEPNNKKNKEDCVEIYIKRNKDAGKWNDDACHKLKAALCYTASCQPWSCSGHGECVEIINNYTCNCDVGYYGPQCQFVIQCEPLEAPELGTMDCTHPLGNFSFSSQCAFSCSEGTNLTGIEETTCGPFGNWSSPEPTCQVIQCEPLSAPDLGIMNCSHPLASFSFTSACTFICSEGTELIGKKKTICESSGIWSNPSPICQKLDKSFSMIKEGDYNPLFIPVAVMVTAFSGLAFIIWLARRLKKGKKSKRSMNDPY

[2] = target: T1, L-selectin (cell surface, Jurkat T lymphocytes); test: flow cytometry titration; details: FITC-labeled, Jurkat cells, competition with 100 nM FITC-DREG56 for 35 min at 4°C, washed in PBS, 2% PFA fix, SLeX assay in PBS with 1% human serum albumin …, scale: apparent affinity relative to LS-Multi-Aptamer

TAGCCAAGGTAACCAGTACAAGGTGCTAAACGTAATGGCTTCGGCTTAC [LS-Aptamer (monovalent)]
IC50 [1]: > 1000 nM
binding signal [2]: 0.001
